{"source": "patent US20060246084A1", "key": {"[1]": {"target": "receptors of human cells in the presence of IFN-α2 (human) (UniProt P01563)", "test": "125I-LcrV68-326 plus unlabelled IFN-α2 on human monocytes"}, "[2]": {"target": "receptors of human cells in the presence of IFN-α2 (human) (UniProt P01563)", "test": "125I-LcrV68-326 plus unlabelled IFN-α2 on human neutrophils"}, "[3]": {"target": "receptors of human cells in the presence of IFN-α2 (human) (UniProt P01563)", "test": "125I-LcrV68-326 plus unlabelled IFN-α2 on U937 cells"}, "[4]": {"target": "synthetic fragment of the mouse TLR-2 extracellular domain (mouse)"}, "[5]": {"target": "receptors of human cells in the presence of IFN-α2 (human) (UniProt P01563)", "test": "125I-LcrV68-326 plus unlabelled IFN-α2 on human thymocytes"}, "[6]": {"target": "IFN-γ receptor on human cells (no IFN-γ added) (human) (UniProt P15260)", "sequence (P15260 18-489)": "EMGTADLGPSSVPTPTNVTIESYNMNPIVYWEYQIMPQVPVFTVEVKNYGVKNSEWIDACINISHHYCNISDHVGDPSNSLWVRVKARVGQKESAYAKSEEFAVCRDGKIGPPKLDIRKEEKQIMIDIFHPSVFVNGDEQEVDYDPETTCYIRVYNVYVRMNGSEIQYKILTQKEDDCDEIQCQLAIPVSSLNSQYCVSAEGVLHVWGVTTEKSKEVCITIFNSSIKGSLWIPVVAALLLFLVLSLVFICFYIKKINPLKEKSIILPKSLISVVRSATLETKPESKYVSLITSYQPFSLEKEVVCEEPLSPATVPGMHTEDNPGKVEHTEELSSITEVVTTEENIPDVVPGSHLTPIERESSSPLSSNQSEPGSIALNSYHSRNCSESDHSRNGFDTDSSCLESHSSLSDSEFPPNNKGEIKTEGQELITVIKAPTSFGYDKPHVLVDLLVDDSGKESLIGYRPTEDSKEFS", "test": "125I-LcrV68-326 alone on human neutrophils"}, "[7]": {"target": "IFN-γ receptor on human cells (no IFN-γ added) (human) (UniProt P15260)", "test": "125I-LcrV68-326 alone on human monocytes"}, "[8]": {"target": "IFN-γ receptor on human cells (no IFN-γ added) (human) (UniProt P15260)", "test": "125I-LcrV68-326 alone on human thymocytes"}, "[9]": {"target": "human TLR-2 receptor on CD14-positive human thymic epithelial VTEC2.HS cells (human) (UniProt O60603)", "sequence (O60603 21-784)": "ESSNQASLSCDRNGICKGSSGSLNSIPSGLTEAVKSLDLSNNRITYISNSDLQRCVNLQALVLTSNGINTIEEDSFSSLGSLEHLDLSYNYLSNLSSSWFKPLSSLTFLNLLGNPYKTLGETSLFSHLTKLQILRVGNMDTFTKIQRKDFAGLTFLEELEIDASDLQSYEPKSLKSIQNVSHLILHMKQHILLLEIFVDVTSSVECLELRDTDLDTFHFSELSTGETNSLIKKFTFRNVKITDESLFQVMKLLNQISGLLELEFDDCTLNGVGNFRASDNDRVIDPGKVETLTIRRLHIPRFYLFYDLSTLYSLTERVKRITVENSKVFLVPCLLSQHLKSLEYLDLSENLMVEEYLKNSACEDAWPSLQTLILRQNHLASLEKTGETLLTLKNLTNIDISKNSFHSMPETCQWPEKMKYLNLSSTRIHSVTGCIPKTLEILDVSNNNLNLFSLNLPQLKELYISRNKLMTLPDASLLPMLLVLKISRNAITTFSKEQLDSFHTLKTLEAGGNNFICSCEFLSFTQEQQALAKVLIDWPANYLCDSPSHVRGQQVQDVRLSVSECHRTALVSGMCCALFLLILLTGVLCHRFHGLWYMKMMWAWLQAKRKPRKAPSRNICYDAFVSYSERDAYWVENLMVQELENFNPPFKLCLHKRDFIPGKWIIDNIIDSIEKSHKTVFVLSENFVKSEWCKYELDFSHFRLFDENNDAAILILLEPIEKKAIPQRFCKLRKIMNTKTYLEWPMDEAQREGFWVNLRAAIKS", "test": "Scatchard analysis, 125I radioligand on VTEC2.HS cells"}, "[10]": {"target": "IFN-γ receptor on human cells (no IFN-γ added) (human) (UniProt P15260)", "test": "125I-LcrV68-326 alone on U937 cells"}, "[11]": {"target": "IFN-γ C-terminal peptide … (human)"}, "[12]": {"target": "human TLR-2 receptor on CD14-positive human thymic epithelial VTEC2.HS cells (human) (UniProt O60603)", "test": "125I radioligand on VTEC2.HS cells; binding not detectable"}}}
{"substance": "LcrV68-326, N-terminally truncated LcrV (from UniProt P0C7U7 68-326)", "values": [{"measurement": "Kd", "setting": "[1]", "value": 1, "unit": "mM"}, {"measurement": "Kd", "setting": "[2]", "value": 1, "unit": "mM"}, {"measurement": "Kd", "setting": "[3]", "value": 1, "unit": "mM"}, {"measurement": "Kd", "setting": "[4]", "value": 0.55, "unit": "nM"}, {"measurement": "Kd", "setting": "[5]", "value": 1, "unit": "mM"}]}
{"substance": "LcrV68-326, N-terminally truncated LcrV (from UniProt P0C7U7 68-326) (other; other documents disagree on this pair)", "values": [{"measurement": "Kd", "setting": "[6]", "value": 1, "unit": "mM"}, {"measurement": "Kd", "setting": "[7]", "value": 1, "unit": "mM"}, {"measurement": "Kd", "setting": "[8]", "value": 1, "unit": "mM"}, {"measurement": "Kd", "setting": "[9]", "value": 0.8, "unit": "nM"}, {"measurement": "Kd", "setting": "[10]", "value": 1, "unit": "mM"}]}
{"substance": "LcrV (V antigen) of Yersinia pestis KIM, recombinant, freed of hexahistidine (from UniProt P0C7U7 1-326)", "values": [{"measurement": "Kd", "setting": "[11]", "value": 6, "unit": "pM"}]}
{"substance": "LcrV (V antigen) of Yersinia pestis KIM, recombinant, freed of hexahistidine (from UniProt P0C7U7 1-326) (other; other documents disagree on this pair)", "values": [{"measurement": "Kd", "setting": "[12]", "value": 1, "unit": "mM"}]}
